Experimental data as given in IntAct's records for PubMed 20489725.
Blank lines part the entries; values can stand above or below the substance they belong to.

Key:
obsl1_human OBSL1 [1] = target: obsl1_human OBSL1 (UniProt O75147)
obsl1_human OBSL1 [2] = target: obsl1_human OBSL1 (UniProt O75147); remark: listed apart in the source
obscn_human OBSCN [3] = target: obscn_human OBSCN (UniProt Q5VST9)
obsl1_human OBSL1 [4] = target: obsl1_human OBSL1 (UniProt O75147); remark: listed apart in the source
obscn_human OBSCN [5] = target: obscn_human OBSCN (UniProt Q5VST9); remark: listed apart in the source
obscn_human OBSCN [6] = target: obscn_human OBSCN (UniProt Q5VST9); remark: listed apart in the source
obscn_human OBSCN [7] = target: obscn_human OBSCN (UniProt Q5VST9); remark: listed apart in the source
obsl1_human OBSL1 [8] = target: obsl1_human OBSL1 (UniProt O75147); remark: listed apart in the source

Chain of obsl1_human OBSL1 (O75147 whole entry): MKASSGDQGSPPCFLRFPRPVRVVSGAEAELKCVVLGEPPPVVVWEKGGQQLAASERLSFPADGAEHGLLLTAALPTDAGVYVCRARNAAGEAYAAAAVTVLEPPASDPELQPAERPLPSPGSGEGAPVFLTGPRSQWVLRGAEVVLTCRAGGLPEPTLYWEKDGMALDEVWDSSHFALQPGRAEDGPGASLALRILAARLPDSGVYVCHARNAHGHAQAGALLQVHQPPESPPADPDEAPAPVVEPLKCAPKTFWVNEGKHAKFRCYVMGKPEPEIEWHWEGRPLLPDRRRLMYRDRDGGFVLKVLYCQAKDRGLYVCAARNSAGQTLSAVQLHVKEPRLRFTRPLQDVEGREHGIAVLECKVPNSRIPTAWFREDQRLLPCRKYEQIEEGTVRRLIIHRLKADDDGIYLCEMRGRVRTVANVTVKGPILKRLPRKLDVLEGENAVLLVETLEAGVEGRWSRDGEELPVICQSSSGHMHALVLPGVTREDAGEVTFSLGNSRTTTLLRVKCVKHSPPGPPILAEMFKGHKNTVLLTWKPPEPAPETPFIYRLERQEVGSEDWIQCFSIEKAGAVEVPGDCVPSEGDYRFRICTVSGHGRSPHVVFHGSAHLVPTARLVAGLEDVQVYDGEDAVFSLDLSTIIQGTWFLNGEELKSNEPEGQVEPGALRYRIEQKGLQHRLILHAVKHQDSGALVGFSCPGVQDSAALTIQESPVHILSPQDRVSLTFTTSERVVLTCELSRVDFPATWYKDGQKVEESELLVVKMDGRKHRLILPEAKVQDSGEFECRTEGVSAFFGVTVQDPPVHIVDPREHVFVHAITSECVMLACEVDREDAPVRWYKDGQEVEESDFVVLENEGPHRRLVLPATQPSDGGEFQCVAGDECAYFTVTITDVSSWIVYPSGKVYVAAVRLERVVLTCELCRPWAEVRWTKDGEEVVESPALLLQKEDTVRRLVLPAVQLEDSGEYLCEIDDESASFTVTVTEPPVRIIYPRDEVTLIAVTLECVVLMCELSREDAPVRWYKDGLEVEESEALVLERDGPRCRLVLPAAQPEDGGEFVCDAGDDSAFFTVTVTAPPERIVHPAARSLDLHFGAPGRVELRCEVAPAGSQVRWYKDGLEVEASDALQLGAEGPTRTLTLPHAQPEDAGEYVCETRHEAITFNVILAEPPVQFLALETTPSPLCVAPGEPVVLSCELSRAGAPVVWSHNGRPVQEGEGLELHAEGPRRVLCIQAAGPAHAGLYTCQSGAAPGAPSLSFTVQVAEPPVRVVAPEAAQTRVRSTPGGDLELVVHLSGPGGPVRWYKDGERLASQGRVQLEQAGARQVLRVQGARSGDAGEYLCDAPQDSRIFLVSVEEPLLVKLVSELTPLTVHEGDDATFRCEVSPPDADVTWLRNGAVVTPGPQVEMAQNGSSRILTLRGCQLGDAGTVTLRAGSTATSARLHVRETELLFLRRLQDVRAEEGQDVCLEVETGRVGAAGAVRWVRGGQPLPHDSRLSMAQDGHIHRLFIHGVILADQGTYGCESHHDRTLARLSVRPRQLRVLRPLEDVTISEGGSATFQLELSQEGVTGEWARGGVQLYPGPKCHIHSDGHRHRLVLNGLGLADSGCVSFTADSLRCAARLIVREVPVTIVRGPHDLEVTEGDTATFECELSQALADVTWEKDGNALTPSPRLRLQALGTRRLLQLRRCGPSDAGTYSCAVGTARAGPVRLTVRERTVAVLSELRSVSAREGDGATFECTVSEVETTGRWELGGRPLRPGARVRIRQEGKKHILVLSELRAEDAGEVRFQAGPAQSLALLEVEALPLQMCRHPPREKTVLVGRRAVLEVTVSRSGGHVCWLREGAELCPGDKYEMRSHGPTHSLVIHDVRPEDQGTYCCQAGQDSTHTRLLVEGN

- effect of a mutation on the interaction (obsl1_human OBSL1 [1]): decreasing interaction
Substance: Titin (Homo sapiens), Q8WZ42 D34311S

- effect of a mutation on the interaction (obsl1_human OBSL1 [2]): decreasing interaction
- effect of a mutation on the interaction (obscn_human OBSCN [3]): decreasing interaction
Substance: Titin (Homo sapiens), Q8WZ42 I34306N

Second part, the substance before the results:

Substance: Titin (Homo sapiens), Q8WZ42 R34348E
- effect of a mutation on the interaction (obsl1_human OBSL1 [4]): increasing interaction
- effect of a mutation on the interaction (obscn_human OBSCN [5]): decreasing interaction

Substance: Titin (Homo sapiens), Q8WZ42 D34311R
- effect of a mutation on the interaction (obscn_human OBSCN [6]): decreasing interaction

Substance: Titin (Homo sapiens), Q8WZ42 H34305P
- effect of a mutation on the interaction (obscn_human OBSCN [7]): decreasing interaction
- effect of a mutation on the interaction (obsl1_human OBSL1 [8]): decreasing interaction
